Measured values from article PMC6149855, “Improving the Catalytic Property of the Glycoside Hydrolase LXYL-P1–2 by Directed Evolution” (Molecules : A Journal of Synthetic Chemistry and Natural …, 2017).

Tested on: [H][C@]12[C@H](OC(=O)c3ccccc3)[C@]3(O)C[C@H](OC(=O)[C@H](O)[C@@H](NC(=O)c4ccccc4)c4ccccc4)C(C)=C([C@@H](O)C(=O)[C@]1(C)[C@@H](O[C@@H]1OC[C@@H](O)[C@H](O)[C@H]1O)C[C@@]1([H])OC[C@@]21OC(C)=O)C3(C)C
Experiment: HPLC of 10-deacetyltaxol formation, nonlinear Michaelis–Menten fit
Assay type: biochemical, Lentinula edodes
Conditions: XDT 0.039–5.0 mM; other conditions as described previously
From the text: HPLC of 10-deacetyltaxol formation, nonlinear Michaelis–Menten fit on LXYL-P1–2

Row | Substance | Km | Vmax | kcat | kcat/Km
1 | LXYL-P1–2 (Lentinula edodes) | 0.51 (±0.01) mmol L^−1 | 8.16 µM/min | 4.89 ± 0.1 s⁻¹ | 9670 ± 100 M⁻¹ s⁻¹
2 | LXYL-P1–2 (Lentinula edodes; S91D) | 0.17 (±0.01) mmol L^−1 | 3.15 µM/min | 1.89 ± 0.04 s⁻¹ | 11300 ± 390 M⁻¹ s⁻¹
3 | LXYL-P1–2 (Lentinula edodes; T368E) | 0.16 (±0.01) mmol L^−1 | 3.84 µM/min | 2.3 ± 0.03 s⁻¹ | 14200 ± 810 M⁻¹ s⁻¹
